Experimental findings from paper PMC6663954 are described below.

This assay has as its target RsPGs (polygalacturonases from Rhizoctonia solani) (Rhizoctonia solani).

“OsPGIP2^L233F, recombinant His-tagged (natural protein)” returned a reduction of RsPG activity, reduced sugar assay (polygalacturonic acid, 50 mM sodium citrate pH 5.0, 37 °C, 1 h) of 40.6%.
